Sequences and labels used below:
B1: LINE1-mini (parent)
chain: GGCAGAGCUCAACACAGCGUGGCAAAGUGGCUGUGGCUAGACUGCC

The variants in the data set derive from B1. Put plainly: self-cleavage, relative activity (ratio to wild type); higher = more cleavage; in vitro, sequencing; the parent is a self-cleaving ribozyme.
Consider C8G C23A, for which the self-cleavage was found to be 0.1. Next, C8G C23G: 0.08; C8G C23U: 0.1. The value for C8A G44U was 0.43. The value for C8A G44A was 0.45; that for C8A G44C was 0.23; that for C8G U43G was 0.88. C8G U43A: the self-cleavage is 0.03. Consider C8G U43C, for which the self-cleavage amounted to 0.02. In the case of C8A G27C, the self-cleavage was found to be 0.12. Turning to C8A G27U, the self-cleavage was determined as 0.16. Consider C8G G17C, for which the self-cleavage worked out at 0.04. For C8G G17A, the self-cleavage is 0.08. The value for C8G G17U was 0.07; that for C8U C31A was 0.21. The value for C8U C31G was 0.17; that for C8U C31U was 0.14; that for C8A G36U was 0.22. As to C8A G36C, the self-cleavage turned out to be 0.29.

With C8A G36A, the self-cleavage was found to be 0.65. As for C8U U34A, the self-cleavage was found to be 0.1.

Regarding C8U U34G, the self-cleavage is 0.22. Consider C8U U34C, for which the self-cleavage came out at 0.18. C8A U20G: the self-cleavage came out at 0.15. The value for C8A U20A was 0.14; that for C8A U20C was 0.15. Next, C8G G36U: 0.07.

As to C8G G36C, the self-cleavage is 0.08. Next, C8G G36A: 0.18; C8G A12C: 0.02. The value for C8G A12G was 0.03; that for C8G A12U was 0.13; that for C8G C15U was 0.1.

With C8G C15G, the self-cleavage came to 0.05.

With C8G C15A, the self-cleavage stood at 0.11. Next, C8G A39G: 0.06; C8G A39C: 0.17; C8G A39U: 0.04. Next, C8G C10G: 0.02; C8G C10A: 0.03; C8G C10U: 0.06. The value for C8U G22U was 0.16; that for C8U G22C was 0.15; that for C8U G22A was 0.15. For the variant U9A, the self-cleavage came to 0.17. The value for C8G G27U was 0.11; that for C8G G27C was 0.1; that for C8G G27A was 0.17. For the variant C8G G44A, the self-cleavage turned out to be 0.04. Next, C8G G44U: 0.04. C8G G44C: the self-cleavage is 0.05. Next, C8A G30A: 0.42; C8A G30C: 0.26; C8A G30U: 0.59. The value for C8U G36A was 0.77; that for C8U G36C was 0.27; that for C8U G36U was 0.2.

Turning to C8G U28A, the self-cleavage turned out to be 0.05.

For the variant C8G U28G, the self-cleavage was found to be 0.06. The value for C8G U28C was 0.46.

Consider C8U U20C, for which the self-cleavage amounted to 0.09. The value for C8U U20G was 0.12. With C8U U20A, the self-cleavage is 0.21. Next, C8U A26G: 0.29. The value for C8U A26U was 0.36; that for C8U A26C was 0.21.

Turning to C8U A12C, the self-cleavage was 0.04.

For C8U A12U, the self-cleavage was determined as 0.29. Next, C8U A12G: 0.08. Next, C8G A14G: 0.08. The value for C8G A14U was 0.08; that for C8G A14C was 0.11. With C8U C10A, the self-cleavage amounted to 0.03. On to C8U C10G, for which the self-cleavage stood at 0.02. On to C8U C10U, for which the self-cleavage was 0.08. Turning to C8U U43C, the self-cleavage was determined as 0.16. The value for C8U U43A was 0.08; that for C8U U43G was 0.12; that for C8G G19C was 0.05.

Regarding C8G G19A, the self-cleavage worked out at 0.15. Next, C8G G19U: 0.04. Turning to C8U C18U, the self-cleavage was 0.14. On to C8U C18G, for which the self-cleavage stood at 0.23. Next, C8U C18A: 0.18. Consider C8A G29C, for which the self-cleavage amounted to 0.14. The value for C8A G29A was 0.26. Take C8A G29U: the self-cleavage came to 0.43. The value for C8U G19A was 0.35; that for C8U G19C was 0.17. Next, C8U G19U: 0.24.

Turning to C8A U43C, the self-cleavage is 0.17. As for C8A U43A, the self-cleavage stood at 0.14. On to C8A U43G, for which the self-cleavage turned out to be 0.11. Next, U9A A39C: 0.17. Consider U9A A39G, for which the self-cleavage was 0.21.

U9A A39U: the self-cleavage was found to be 0.1. As for C8G U9G, the self-cleavage came out at 0.12.

With C8G U9A, the self-cleavage came to 0.21.

For C8G U9C, the self-cleavage was found to be 0.02. Next, C8U A16C: 0.13; C8U A16G: 0.16. As for C8U A16U, the self-cleavage was 0.13. Next, C8G U34G: 0.08.

Consider C8G U34A, for which the self-cleavage stood at 0.05.

For the variant C8G U34C, the self-cleavage came out at 0.04. The value for C8U A25C was 0.21; that for C8U A25G was 0.13; that for C8U A25U was 0.18. The value for C8U U32A was 0.1; that for C8U U32C was 0.12. Consider C8U U32G, for which the self-cleavage was 0.1.

In the case of C8G C18A, the self-cleavage was 0.04. The value for C8G C18G was 0.08; that for C8G C18U was 0.1. The value for U9A C10G was 0.04; that for U9A C10U was 0.08; that for U9A C10A was 0.04. The value for U9A A16U was 0.06; that for U9A A16G was 0.11; that for U9A A16C was 0.08. Regarding C8U G27U, the self-cleavage worked out at 0.14. Next, C8U G27C: 0.11.

In the case of C8U G27A, the self-cleavage worked out at 0.14. Next, U9A C23A: 0.14; U9A C23G: 0.16.

On to U9A C23U, for which the self-cleavage amounted to 0.21.

C8G G30U: the self-cleavage was 0.2. Turning to C8G G30C, the self-cleavage worked out at 0.1. Next, C8G G30A: 0.21; C8U C23U: 0.25; C8U C23G: 0.29. On to C8U C23A, for which the self-cleavage stood at 0.21. Next, U9A C46A: 0.17; U9A C46G: 0.12. The value for U9A C46U was 0.17; that for C8U G17U was 0.14; that for C8U G17A was 0.15. The value for C8U G17C was 0.16.

Regarding C8G C13A, the self-cleavage stood at 0.11. In the case of C8G C13U, the self-cleavage was 0.18.

For the variant C8G C13G, the self-cleavage amounted to 0.04.

Regarding C8U A14C, the self-cleavage is 0.15. Take C8U A14U: the self-cleavage is 0.09.

For the variant C8U A14G, the self-cleavage is 0.19.

Take U9A A24C: the self-cleavage came out at 0.56. The value for U9A A24G was 0.2. The value for U9A A24U was 0.33; that for C8U A24U was 0.33; that for C8U A24C was 0.24. The value for C8U A24G was 0.14.

In the case of C8U U9A, the self-cleavage came out at 0.32. As to C8U U9G, the self-cleavage stood at 0.09. Next, C8U U9C: 0.06. Consider C8G G22U, for which the self-cleavage came to 0.09.

Consider C8G G22A, for which the self-cleavage is 0.1. Next, C8G G22C: 0.06. Turning to C8U G30A, the self-cleavage was found to be 0.24. Next, C8U G30C: 0.26; C8U G30U: 0.29; C8G G35A: 0.13. The value for C8G G35C was 0.06; that for C8G G35U was 0.2. C8G U38C: the self-cleavage was determined as 0.05.

C8G U38A: the self-cleavage was found to be 0.06. Next, C8G U38G: 0.32. The value for C8G A25C was 0.11; that for C8G A25G was 0.1.

The values are drawn from the RNAGym collection of RNA variant scans (doi:10.7554/elife.90254).
